Patent US9482669B2, “Crystal structure of the NanR and ManNAc-6P complex, and uses thereof” (priority 2013, dated 2016)

Tests used:
[1] = tested on: nanTp-nanE intergenic region; assay: EMSA of NanR with nanTp-nanE intergenic region; format: binding, Vibrio vulnificus; conditions: for DNA binding in EMSA: wild-type or mutant NanR
Method: (§1) Purified His-NanR protein was used to raise a primary polyclonal antibody by immunizing European rabbits (Oryctolagus curiculus). First, after one primary injection containing 500 μg of protein, three boosters containing 200 μg of protein was performed at 2-week intervals. Western blotting, EMSA and DNaseI footprinting assays were performed according to typical procedures known in the art.
NanR represses both nan T(PSL)AR and nanEK nagA operons by binding to an operator within the nanTp-nanE intergenic region. To examine the role of R57 and R60 residues in DNA binding, EMSA (electrophoretic gel mobility shift assays), in which the nanTp-nanE intergenic region was incubated with wild-type or mutant NanR in the absence or presence of ManNAc-6P, were performed.
The importance of K188 and K199 residues on all to binding of NanR to DNA was assessed by EMSA. […] Furthermore, the mutants were much more susceptible to ManNAc-6P than wild-type NanR (FIG. 10). […] The transcriptional control region of nan operon interacts with the dimer via the positively charged residues in this space (FIGS. 7b and 7c).

[2] = tested on: 32P-labeled transcriptional control region of nan operon; assay: DNaseI footprinting assay; format: binding, Vibrio vulnificus; conditions: 400 nM NanR, 0.1 mM or 1 mM ManNAc-6P
Method: as §1
(§2) Therefore, the present inventors hypothesized that binding of ManNAc-6P may alter the conformation of NanR and alleviate its interaction with the transcriptional control region of nan operon. In detail, a DNaseI footprinting assay using NanR protein and ^32P-labeled transcriptional control region of nan operon was performed.

[3] = target: NanR-binding duplex DNA (transcriptional control region of nan operon); assay: Isothermal titration calorimetry of NanR with NanR-binding duplex DNA; parameters: species or system Vibrio vulnificus; conditions: for Kd: ITC at 25° C., 0.48 mM protein titrated against 0.03 mM DNA, read-out: dissociation constant (Kd) for target DNA
Method: NanR-binding duplex DNA (5′-[…] […]-3′, SEQ ID NO:15) was chemically synthesized. NanR was dialyzed extensively against Tris buffer (50 mM Tris-HCl, pH 7.0; 300 mM NaCl) and the DNA was diluted to 0.03 mM in the same buffer. Protein and DNA samples were degassed by vacuum aspiration for 20 minutes prior to loading and titration was carried out at 25° C. The NanR dimer in the syringe (0.48 mM) was titrated against the 0.03 mM DNA sample in the reaction cell. Analysis of the interaction between the NanR/ManNAc-6P complex and the DNA sample was performed using 0.48 mM of complex and 0.03 mM of DNA. The calorimetric assays were performed using a VP-ITC (MicroCal Inc., Northampton, Mass.). The stirring speed was 300 rpm and the thermal power was recorded every 10 seconds. Data were processed and plotted using the Origin program (version 7) supplied with the instrument.
as §2

[4] = tested on: PnanTp; assay: E. coli dual plasmid system (luciferase reporter fused to PnanTp); format: cell-based; conditions: for repressive effect of NanR on activity of PnanTp: point mutations in DBD
Method: E. coli strains were co-transformed with a luciferase reporter plasmid (pBS0915) and one of the pNB-series of plasmids that express NanR. Cells were cultured overnight and then diluted into the appropriate fresh media (supplemented M9 in FIG. 3; LB in FIG. 4) containing arabinose (0.002%), and incubated at 37° C. until cells grew to early exponential phase. Relative luminescence unit (RLU) was calculated by dividing the luminescence by the A600, as described previously. For screening ligand-sensing residues, the BSE1201 strain (ΔaraBAD ΔnanE) was used as the host cell instead of DH5α to ensure that the arabinose was not used as a carbon source and that ManNAc-6P generated from Neu5Ac was accumulated in the cell.
To assess the importance of the interaction between ManNAc-6P and NanR to regulation of the nan genes, the residues involved in ligand-binding were mutated and the impact on NanR function was investigated using an E. coli dual plasmid system. Cells were cotransformed with plasmids containing a luciferase reporter gene fused to the NanR-binding nanT(PSL)AR promoter (PnanTp), and wild-type or mutant NanR, and then incubated in the presence of arabinose and the presence or absence of Neu5Ac.
The simplest helix-turn-helix (HTH)-containing DBD includes three core helices; the HTH domains can form tetra-helical bundle, winged helix, and ribbon-helix-helix type configurations. The DBD of NanR is composed of a six-helix bundle, which is not the archetypal conformation of HTH-containing domains; therefore, the recognition helix required for DNA-binding could not been determined. […] The importance of these residues to DNA-binding was examined using an E. coli dual plasmid system described in Example 2. The repressive effect of wild-type NanR on activity of PnanTp was abolished by the R57A, R57L, R60A, and R60L point mutations (FIG. 4c).

[5] = tested on: PnanE; assay: In vitro transcription assay; format: biochemical, Vibrio vulnificus; conditions: 100 nM NanR protein, presence or absence of 1 mM ManNAc-6P
Method: In vitro transcription assays with wild-type or mutant NanR proteins were performed according to procedures described previously. RNA extraction, cDNA synthesis, and real time PCR amplification of the cDNA were performed as described previously.

CC(=O)N[C@@H]1C(O)O[C@H](COP(=O)(O)O)[C@@H](O)[C@@H]1O (some centres unmarked) [ManNAc-6P, N-acetylmannosamine 6-phosphate]
effect of ManNAc-6P on DNA migration in EMSA ([1]; addition of ManNAc-6P): retardation of DNA migration
effect of ManNAc-6P on DNaseI protection by NanR [2]: cleavage bands at the center of the NanR-binding site disappeared

B1: NanR dimer: V. vulnificus transcriptional repressor of the nan operon, SEQ ID NO. 1 (protein, listed as Vibrio vulnificus)
chain: MGSPKNLLVRLRSNMEPFSKKLRVVADYILENAHDVQFQTITDLARNTQTSEATVVRLCRDMGYKGYSDFRMALAVDLSQTESRQQNHIEGDICDVSAQSAVDSLQDTAKLIDRKSLARIVERVHQAEFIGCIGVGASSIVGRYLAYRLIRIGKKAIMFEDTHLAAMSASRSSQGDLWFAVSSSGSTKEVIHAAGLAYKRDIPVVSLTNINHSPLSSLSTEMLVAARPEGPLTGGAFASKVGALLLVDVLVNSLLESYPEYKDSVQETAEVVIPLMAN
modifications: homodimer
Kd [3]: 1.4 µM
luciferase activity (PnanTp) after addition of Neu5Ac ([4]; BSE1201 host, arabinose, presence or absence of Neu5Ac): increased following addition of Neu5Ac

B2: R57A: modified NanR protein, Arg57 substituted with alanine (protein)
chain: MGSPKNLLVRLRSNMEPFSKKLRVVADYILENAHDVQFQTITDLARNTQTSEATVVALCRDMGYKGYSDFRMALAVDLSQTESRQQNHIEGDICDVSAQSAVDSLQDTAKLIDRKSLARIVERVHQAEFIGCIGVGASSIVGRYLAYRLIRIGKKAIMFEDTHLAAMSASRSSQGDLWFAVSSSGSTKEVIHAAGLAYKRDIPVVSLTNINHSPLSSLSTEMLVAARPEGPLTGGAFASKVGALLLVDVLVNSLLESYPEYKDSVQETAEVVIPLMAN
repressive effect of NanR on activity of PnanTp [4]: abolished
DNA binding in EMSA [1]: No DNA migration was detected
repression of PnanE transcription [5]: did not repress PnanE

B3: R60A: modified NanR protein, Arg60 substituted with alanine (protein)
chain: MGSPKNLLVRLRSNMEPFSKKLRVVADYILENAHDVQFQTITDLARNTQTSEATVVRLCADMGYKGYSDFRMALAVDLSQTESRQQNHIEGDICDVSAQSAVDSLQDTAKLIDRKSLARIVERVHQAEFIGCIGVGASSIVGRYLAYRLIRIGKKAIMFEDTHLAAMSASRSSQGDLWFAVSSSGSTKEVIHAAGLAYKRDIPVVSLTNINHSPLSSLSTEMLVAARPEGPLTGGAFASKVGALLLVDVLVNSLLESYPEYKDSVQETAEVVIPLMAN
repressive effect of NanR on activity of PnanTp [4]: abolished
DNA binding in EMSA [1]: No DNA migration was detected
repression of PnanE transcription [5]: did not repress PnanE

B4: K199L (protein)
chain: MGSPKNLLVRLRSNMEPFSKKLRVVADYILENAHDVQFQTITDLARNTQTSEATVVRLCRDMGYKGYSDFRMALAVDLSQTESRQQNHIEGDICDVSAQSAVDSLQDTAKLIDRKSLARIVERVHQAEFIGCIGVGASSIVGRYLAYRLIRIGKKAIMFEDTHLAAMSASRSSQGDLWFAVSSSGSTKEVIHAAGLAYLRDIPVVSLTNINHSPLSSLSTEMLVAARPEGPLTGGAFASKVGALLLVDVLVNSLLESYPEYKDSVQETAEVVIPLMAN
DNA binding in EMSA [1]: not as conspicuous as that of wild-type NanR

B5: K199A (protein)
chain: MGSPKNLLVRLRSNMEPFSKKLRVVADYILENAHDVQFQTITDLARNTQTSEATVVRLCRDMGYKGYSDFRMALAVDLSQTESRQQNHIEGDICDVSAQSAVDSLQDTAKLIDRKSLARIVERVHQAEFIGCIGVGASSIVGRYLAYRLIRIGKKAIMFEDTHLAAMSASRSSQGDLWFAVSSSGSTKEVIHAAGLAYARDIPVVSLTNINHSPLSSLSTEMLVAARPEGPLTGGAFASKVGALLLVDVLVNSLLESYPEYKDSVQETAEVVIPLMAN
DNA binding in EMSA [1]: not as conspicuous as that of wild-type NanR

B6: NanR complexed with ManNAc-6P: complex formed by interaction between NanR protein and ManNAc-6P (protein, UniProt P0A8W0 1-263, looked up)
HTH-type transcriptional …: MGLMNAFDSQTEDSSPAIGRNLRSRPLARKKLSEMVEEELEQMIRRREFGEGEQLPSERELMAFFNVGRPSVREALAALKRKGLVQINNGERARVSRPSADTIIGELSGMAKDFLSHPGGIAHFEQLRLFFESSLVRYAAEHATDEQIDLLAKALEINSQSLDNNAAFIRSDVDFHRVLAEIPGNPIFMAIHVALLDWLIAARPTVTDQALHEHNNVSYQQHIAIVDAIRRHDPDEADRALQSHLNSVSATWHAFGQTTNKKK
modifications: complexed with ManNAc-6P
Kd [3]: 186 µM
reduction of interaction affinity for DNA versus NanR dimer ([3]; NanR complexed with ManNAc-6P): 130 fold
